Article PMC10208894, “The SmNPR4-SmTGA5 module regulates SA-mediated phenolic acid biosynthesis in Salvia miltiorrhiza hairy roots”

T1: SmTGA5 (Salvia miltiorrhiza, UniProt UPI0025ACD97B 1-458)
T1 sequence: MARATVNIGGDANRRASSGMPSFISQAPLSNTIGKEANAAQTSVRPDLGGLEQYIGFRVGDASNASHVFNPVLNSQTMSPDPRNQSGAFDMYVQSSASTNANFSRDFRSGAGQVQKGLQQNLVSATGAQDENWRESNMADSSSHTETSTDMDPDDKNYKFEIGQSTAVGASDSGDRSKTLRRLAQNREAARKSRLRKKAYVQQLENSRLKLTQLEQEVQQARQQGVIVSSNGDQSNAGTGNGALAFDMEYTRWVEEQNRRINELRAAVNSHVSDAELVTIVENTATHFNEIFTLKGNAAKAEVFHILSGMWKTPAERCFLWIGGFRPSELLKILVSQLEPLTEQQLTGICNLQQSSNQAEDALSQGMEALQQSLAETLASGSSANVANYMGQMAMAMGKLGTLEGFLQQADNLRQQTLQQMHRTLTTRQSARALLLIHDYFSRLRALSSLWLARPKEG

B1: Probe-pTAT1 (3x as-1) (dsDNA)
DNA 1: TTTAAAGTGACGTGTATCATTTAAAGTGACGTGTATCATTTAAAGTGACGTGTATCA
DNA 2: TGATACACGTCACTTTAAATGATACACGTCACTTTAAATGATACACGTCACTTTAAA
B2: Mut-Probe-pTAT1 (dsDNA)
DNA 1: TTTAAAGTTAAATGTATCATTTAAAGTTAAATGTATCATTTAAAGTTAAATGTATCA
DNA 2: TGATACATTTAACTTTAAATGATACATTTAACTTTAAATGATACATTTAACTTTAAA

Assays:
[1] = molecular target: T1, SmTGA5; test: EMSA; unlabeled probe at 1:10 and 1:100 reduces the shift; Beyotime GS009 EMSA kit, 20-25 C, 20 min, acrylamide gel; buffer, salt and pH not stated; details: protein: recombinant; tags: His (pET32a, N-terminal fusion); chain copies: 2; blunt
[2] = molecular target: T1, SmTGA5; test: EMSA; Beyotime GS009 EMSA kit, 20-25 C, 20 min, acrylamide gel; buffer, salt and pH not stated; details: protein: recombinant; tags: His (pET32a, N-terminal fusion); chain copies: 2; blunt

Binder	binding result [1]	binding result [2]
B1	binds	–
B2	–	no binding
